# In US8877715B2, “Cytotoxic conjugates having neuropeptide Y receptor binding compound” (priority 2009, dated 2014):
# Target: T1, NPY-Y2 receptor (Homo sapiens, UniProt P49146)
# T1 construct: the appropriate cells (SK-N-MC for NPY-Y1; host or cells: SK-N-BE2 human neuroblastoma cells (membrane homogenate)
# T1 sequence (P49146 1-381): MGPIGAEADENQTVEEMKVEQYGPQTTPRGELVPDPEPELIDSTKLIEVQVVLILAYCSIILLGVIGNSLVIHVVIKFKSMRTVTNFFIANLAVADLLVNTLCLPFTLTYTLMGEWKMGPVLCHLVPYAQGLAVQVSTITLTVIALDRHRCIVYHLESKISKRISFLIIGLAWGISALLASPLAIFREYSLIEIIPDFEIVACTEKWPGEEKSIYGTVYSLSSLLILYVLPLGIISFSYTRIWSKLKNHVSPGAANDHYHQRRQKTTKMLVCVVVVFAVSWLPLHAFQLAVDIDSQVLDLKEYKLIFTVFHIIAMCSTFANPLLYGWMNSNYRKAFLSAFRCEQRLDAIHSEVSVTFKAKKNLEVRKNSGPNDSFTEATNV
# Assay: In vitro radioligand NPY-Y2 receptor binding assay ([125I]PYY, SK-N-BE2 cell membranes)
# Details: [125I]PYY displacement
# Method: In Vitro Radioligand NPY-Y1 and NPY-Y2 Receptor Binding Assays
# Human neuroblastoma cell lines, SK-N-MC and SK-N-BE2 (American Type Culture Collection, Rockville, Md., USA), expressing the NPY-Y1 and NPY-Y2 receptors, respectfully, were cultured in EMEM containing 10% fetal calf serum and 5% chicken embryo extract, maintained at 37° C. in a humidified atmosphere of and 95% air and 5% CO2.
# For the in vitro NPY-Y1 and NPY-Y2 radioligand binding assays, the appropriate cells (SK-N-MC for NPY-Y1; SK-N-BE2 for NPY-Y2) were harvested and then homogenized in 20 ml of ice-cold 50 mM Tris-HCl with a Brinkman Polytron (Westbury, N.Y., USA) (setting 6, 15 sec). The homogenates were washed twice by centrifugation (39,000 g/10 min), and the final pellets were resuspended in 50 mM Tris-HCl, containing 2.5 mM MgCl2, 0.1 mg/ml bacitracin (Sigma Chemical, St. Louis, Mo., USA), and 0.1% BSA.
row,Substance,Ki [nM]
1,"[Camptothecin-rvD/L-Asp-Suc-Tyr^1, Nle^17, A6c^31, 4Hyp^34]hNPY(1-36)-NH2 [93/93A]",> 1000
2,"[camptothecin-rvD/Lasp-Suc-Tyr^1, Nle^17, 4Hyp^34]hNPY(1-36)-NH2 [Example 92/92A]",> 1000
